US20050260216A1 (published 2005)
One block for each molecule: values may come before it.

Assays:
[1] = biological target: human type-2 IL-4 receptor (on A549 cells) (human) (UniProt P24394); assay: cell-based or functional assay
[2] = biological target: T1, human type-2 IL-4 receptor (on A549 cells) (human, UniProt P24394 26-825; P78552 22-427); assay: cell-based or functional assay
T1 sequence (looked up) 1: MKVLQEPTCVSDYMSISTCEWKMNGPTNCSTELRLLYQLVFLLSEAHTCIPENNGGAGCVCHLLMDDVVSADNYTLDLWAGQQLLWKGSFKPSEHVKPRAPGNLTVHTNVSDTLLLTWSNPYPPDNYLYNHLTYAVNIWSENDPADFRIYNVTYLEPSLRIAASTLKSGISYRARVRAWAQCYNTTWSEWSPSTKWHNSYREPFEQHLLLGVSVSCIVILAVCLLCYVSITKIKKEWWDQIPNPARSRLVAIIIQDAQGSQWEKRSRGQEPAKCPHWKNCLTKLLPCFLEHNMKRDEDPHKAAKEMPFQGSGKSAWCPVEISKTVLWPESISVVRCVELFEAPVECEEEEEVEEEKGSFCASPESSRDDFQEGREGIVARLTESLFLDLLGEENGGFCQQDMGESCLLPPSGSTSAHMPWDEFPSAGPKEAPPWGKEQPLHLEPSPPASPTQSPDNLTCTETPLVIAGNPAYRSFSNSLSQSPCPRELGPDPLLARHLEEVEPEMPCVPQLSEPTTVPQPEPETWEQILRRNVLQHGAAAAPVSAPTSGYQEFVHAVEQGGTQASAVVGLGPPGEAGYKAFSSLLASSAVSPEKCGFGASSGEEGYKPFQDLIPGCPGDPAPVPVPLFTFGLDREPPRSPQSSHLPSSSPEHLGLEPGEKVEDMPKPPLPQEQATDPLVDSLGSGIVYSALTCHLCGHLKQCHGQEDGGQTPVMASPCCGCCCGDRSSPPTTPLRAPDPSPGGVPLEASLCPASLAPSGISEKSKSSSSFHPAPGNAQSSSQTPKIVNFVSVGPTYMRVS
T1 sequence (looked up) 2: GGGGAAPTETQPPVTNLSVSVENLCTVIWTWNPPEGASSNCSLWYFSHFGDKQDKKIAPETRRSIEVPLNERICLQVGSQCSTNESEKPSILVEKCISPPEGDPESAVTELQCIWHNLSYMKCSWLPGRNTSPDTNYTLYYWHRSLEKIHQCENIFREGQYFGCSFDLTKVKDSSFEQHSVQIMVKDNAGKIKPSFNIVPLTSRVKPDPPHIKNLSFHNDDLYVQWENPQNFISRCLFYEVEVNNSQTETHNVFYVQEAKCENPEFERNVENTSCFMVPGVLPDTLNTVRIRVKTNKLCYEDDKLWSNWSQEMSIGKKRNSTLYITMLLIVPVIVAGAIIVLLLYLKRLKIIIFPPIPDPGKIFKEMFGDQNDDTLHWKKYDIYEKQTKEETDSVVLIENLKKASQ

- phosphorylation of STAT6 in A549 cells (Western blot); lowest active concentration tested [1]: 10 ng/mL
Molecule: recombinant mouse IL-13 (catalogue number 413-ML-025, R&D Systems) (from UniProt P20109 26-131) (ligand)

- bioactivity relative to mIL-13 (STAT6 phosphorylation in A549 cells) [2]: ~5 fold less than mIL-13
B1: chimaeric IL-13 (free cIL-13 generated from GST-cIL-13 by thrombin cleavage) (ligand)
chain: GPVPRSVSLPLTLRELIEELVNITQDQTPLCNGSMVWSVDLAAGGYCAALESLTNISNCNAIEKTQRMLGGLCNRKAPTTVSSLPDTKIEVAQFVKDLLSYTKQLFRHGPF
